In patent US20090252683A1 (Amgen, published 2009):

Experiments:
[1] = target: T1, human CAIX antigen on A549 cells (human, UniProt Q16790 38-459); experiment: FACS, A549 cells, 1 µg/ml purified protein (FIG. 26)
Procedure: FIG. 26: FACS binding analysis of cross-species specific bispecific single chain construct CAIX HL×SEQ ID NO. 194 to HPB-ALL (human CD3+), cynomolgus PBMC (cynomolgus CD3+), A549 (human CAIX+) and CYNOM-KI (cynomolgus CAIX+) cells, respectively. The FACS staining was performed as described in Example 23. The thick line represents cells incubated with 1 μg/ml purified monomeric protein that were subsequently incubated with the anti-his antibody and the PE labeled detection antibody. The thin histogram line reflects the negative control: cells only incubated with the anti-his antibody and the detection antibody.
In order to test the functionality of the cross-species specific bispecific antibody constructs with regard to binding capability to human and cynomolgus EGFR and CD3, respectively, a FACS analysis was performed. For this purpose the EGFR positive epidermoid carcinoma A431 cells (ATCC, CRL-1555) and CD3 positive human T cell leukemia cell line HPB-ALL (DSMZ, Braunschweig, ACC483) were used to check the binding to human antigens. […] The cells were washed twice in PBS and binding of the construct was detected with an unlabeled murine Penta His antibody (diluted 1:20 in 50 μl PBS with 2% FCS; Qiagen; Order No. 34660). After washing, bound anti His antibodies were detected with an Fc gamma-specific antibody (Dianova) conjugated to phycoerythrin, diluted 1:100 in 50 μl PBS with 2% FCS. […]

[2] = target: T2, cynomolgus EpCAM antigen on transfected CHO cells (cynomolgus, UniProt Q1WER1 24-265 (rhesus entry)); experiment: FACS on cynomolgus EpCAM transfected CHO cells against untransfected cells
T2 construct: 48 holds the extracellular portion
T2 sequence: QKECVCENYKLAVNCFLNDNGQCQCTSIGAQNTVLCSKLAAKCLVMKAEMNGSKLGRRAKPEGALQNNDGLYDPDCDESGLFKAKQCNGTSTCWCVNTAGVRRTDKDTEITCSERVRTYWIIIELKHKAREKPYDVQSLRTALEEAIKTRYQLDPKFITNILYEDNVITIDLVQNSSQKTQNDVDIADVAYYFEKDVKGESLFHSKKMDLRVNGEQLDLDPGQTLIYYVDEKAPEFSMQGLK
Procedure: FIG. 7: FACS assay for the detection of the cynomolgus EpCAM antigen on transfected CHO cells. Supernatants of three different anti human EpCAM hybridomas (M79, 3B10, 2G8) were tested for binding.
To generate a cell line positive for cynomolgus EpCAM, a clone of the aforementioned coding sequence of the cynomolgus EpCAM antigen subcloned into pEFDHFR with a verified nucleotide sequence was transfected into DHFR deficient CHO cells for eukaryotic expression of the construct as described in Kaufmann R. J. (1990) Methods Enzymol. 185, 537-566). Gene amplification of the construct was induced by increasing concentrations of MTX to a final concentration of up to 500nM MTX. The transfected cells were then tested for expression of cynomolgus EpCAM using an FACS assay. For that purpose, a number of 2.5×10⁵ cells was incubated with 50 μl supernatant three different mouse anti human EpCAM hybridomas (M79—Fogler et al., Cancer Res. 48 (1988); p. 6303-8; 3B10—Passlick et al. Int. J. Cancer 87 (2000), p. 548-552; 2G8—Balzar et al., J. Mol. Med. 77 (1999), p. 699-712). […] The samples were measured on a FACSscan (BD biosciences, Heidelberg, FRG). The anti EpCAM antibody 2G8 was recognized as cross-species specific and the expression of cynomolgus EpCAM was confirmed (see FIG. 7).

[3] = target: T3, human EpCAM antigen on Kato III cells or human EpCAM transfected CHO cells (human, UniProt P16422 24-265); experiment: FACS, Kato III cells or human EpCAM transfected CHO cells, anti-His detection
T3 construct: 137 holds only the extracellular portion; the protein stood whole on cells
T3 sequence: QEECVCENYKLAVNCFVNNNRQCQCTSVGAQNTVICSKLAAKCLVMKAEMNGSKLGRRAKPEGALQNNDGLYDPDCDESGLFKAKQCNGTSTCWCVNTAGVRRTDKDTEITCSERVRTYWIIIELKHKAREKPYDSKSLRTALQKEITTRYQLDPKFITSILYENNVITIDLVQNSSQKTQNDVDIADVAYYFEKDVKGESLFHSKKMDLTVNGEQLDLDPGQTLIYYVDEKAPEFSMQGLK
Procedure: FIG. 3: FACS assay for binding of 5-10LH×SEQ ID NO. 12, 5-10LH×SEQ ID NO. 10, 5-10LH×SEQ ID NO. 16 and 5-10LH×SEQ ID NO. 14 to human Kato III cells expressing EpCAM or human EpCAM transfected CHO cells and to HPB-ALL cells. Cells bound by the respective constructs (depicted as non-filled curves) are shown in comparison to cells incubated only with the detection antibodies (depicted as filled curves). Antigen binding of all bispecific constructs was clearly detectable for the anti human EpCAM specificity as well as for the anti CD3 specificities on the HPB-ALL cell line positive for human CD3.
Binding of the bifunctional constructs to the EpCAM antigen on human Kato III cells expressing EpCAM (ATCC No. HTB-103) or on human EpCAM transfected CHO cells and to the human CD3 antigen on HPB-ALL cells was tested using an FACS assay. For that purpose 2.5×10⁵ cells were incubated with 50 μl of cell culture supernatant containing the construct. The binding of the construct was detected with an anti-His antibody (Penta-His Antibody, BSA free, obtained from Qiagen GmbH, Hilden, FRG) at 2 μg/ml in 50 μl PBS with 2% FCS. […] The samples were measured on a FACSscan (BD biosciences, Heidelberg, FRG). Antigen binding was clearly detectable for the anti human EpCAM specificity as well as for the anti CD3 specificities on the cell line positive for human CD3 (see FIG. 3).

[4] = target: T1, human CAIX antigen on A549 cells; experiment: FACS, A549 cells, 1 µg/ml purified protein (FIG. 28)
[5] = target: T1, human CAIX antigen on A549 cells; experiment: FACS, A549 cells, 1 µg/ml purified protein (FIG. 27)
[6] = target: T4, human CD3 antigen on HPB-ALL cells or human T cells (human, UniProt P07766 22-126; P09693 23-111; P04234 22-103); experiment: FACS, FITC-conjugated antibody on HPB-ALL cells
T4 construct: natural CD3 complex on cells (HPB-ALL, human PBMC T cells); also called human CD3 complex
T4 sequence (P07766 22-126 limits assumed, chain 1 of 3): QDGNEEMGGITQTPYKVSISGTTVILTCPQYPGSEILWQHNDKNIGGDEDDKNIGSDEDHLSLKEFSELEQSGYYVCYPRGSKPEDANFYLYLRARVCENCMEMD
T4 sequence (P09693 23-111 limits assumed, chain 2 of 3): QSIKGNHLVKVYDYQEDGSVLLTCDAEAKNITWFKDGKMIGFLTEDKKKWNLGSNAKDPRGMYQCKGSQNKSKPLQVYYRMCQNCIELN
T4 sequence (P04234 22-103 limits assumed, chain 3 of 3): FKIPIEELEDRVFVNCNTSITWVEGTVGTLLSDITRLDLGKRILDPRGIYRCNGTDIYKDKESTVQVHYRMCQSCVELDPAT
Procedure: Binding of an Ig comprising SEQ ID NOs. 2 and 4, an Ig comprising SEQ ID NOs. 6 and 8 and mAb FN18 to the cynomolgus CD3 antigen on cynomolgus PBMC and to the human CD3 antigen on HPB-ALL cells (DSMZ No. ACC 483) was tested using an FACS assay. For that purpose, 2.5×10⁵ cells were incubated with the FITC-conjugated Ig comprising SEQ ID NOs. 6 and 8 and the FITC-conjugated Ig comprising SEQ ID NOs. 2 and 4 diluted 1:25 in 50 μl PBS with 2% FCS, respectively. The incubation with the FITC-conjugated mAb FN18 antibody (Biosource International) was performed in 50 μl of undiluted antibody. The samples were measured on a FACSscan (BD biosciences, Heidelberg, FRG). Strong antigen binding on human as well as on cynomolgus cells was detected for the Ig comprising SEQ ID NOs. 2 and 4. For the Ig comprising SEQ ID NOs. 6 and 8, strong binding to human cells but weaker binding to cynomolgus cells was observed. For FN18, strong binding to cynomolgus cells could be observed whereas no binding to human cells could be detected.

B1: CAIX HL × SEQ ID NO. 194 (bispecific antibody)
chain: DVKLVESGGGLVKLGGSLKLSCAASGFTFSNYYMSWVRQTPEKRLELVAAINSDGGITYYLDTVKGRFTISRDNAKNTLYLQMSSLKSEDTALFYCARHRSGYFSMDYWGQGTSVTVSSGGGGSGGGGSGGGGSDIVMTQSQRFMSTTVGDRVSITCKASQNVVSAVAWYQQKPGQSPKLLIYSASNRYTGVPDRFTGSGSGTDFTLTISNMQSEDLADFFCQQYSNYPWTFGGGTKLEIKSGGGGSQTVVTQEPSLTVSPGGTVTLTCRSSTGAVTTSNYANWVQQKPGQAPRGLIGGTNKRAPGTPARFSGSLLGGKAALTLSGVQPEDEAEYYCALWYSNLWVFGGGTKLTVLGGGGSGGGGSGGGGSEVQLVESGGGLVQPGGSLKLSCAASGFTFNTYAMNWVRQAPGKGLEWVARIRSKYNNYATYYADSVKDRFTISRDDSKNTAYLQMNNLKTEDTAVYYCVRHGNFGNSYVSWFAYWGQGTLVTVSSHHHHHH
notes: the appendix prints the entry with HHHHHH and then *VD at its end
B1: binds [1].

B2: anti EpCAM antibody 2G8 (antibody, V domains shown)
VH: EVQLQQSGAELVRSGASVKLSCTASGFNIKDYYLHWVKQRPEQGLEWIAWIDLENGDIKYAPKFQGKATITADTSSNTAYLQLSSLTSEDTAVYYCNPYYYGSNYDYAMDYWGQGTSVTVSS
VL: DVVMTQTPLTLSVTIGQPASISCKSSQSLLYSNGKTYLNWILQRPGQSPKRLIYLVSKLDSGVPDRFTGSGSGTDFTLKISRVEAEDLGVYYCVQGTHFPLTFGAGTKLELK
notes: mouse hybridoma supernatant; also called 2G8 hybridoma
B2: binds [2].

B3: 5-10LH×SEQ ID NO. 16 bispecific single chain antibody (bispecific antibody)
chain: ELVMTQSPSSLTVTAGEKVTMSCKSSQSLLNSGNQKNYLTWYQQKPGQPPKLLIYWASTRESGVPDRFTGSGSGTDFTLTISSVQAEDLAVYYCQNDYSYPLTFGAGTKLEIKGGGGSGGGGSGGGGSEVQLLEQSGAELVRPGTSVKISCKASGYAFTNYWLGWVKQRPGHGLEWIGDIFPGSGNIHYNEKFKGKATLTADKSSSTAYMQLSSLTFEDSAVYFCARLRNWDEPMDYWGQGTTVTVSSGGGGSQVVLTQSPAIMSAFPGEKVTMTCSASSSVSYMNWYQQKSGTSPKRWIYDSSKLASGVPARFSGSGSGTSYSLTISSMETEDAATYYCQQWSRNPPTFGGGTKLQITGGGGSGGGGSGGGGSQVQLQQSGAELARPGASVKMSCKASGYTFTRSTMHWVKQRPGQGLEWIGYINPSSAYTNYNQKFKDKATLTADKSSSTAYMQLSSLTSEDSAVYYCASPQVHYDYNGFPYWGQGTLVTVSAHHHHHH
B3: binds [3].

B4: CAIX LH × SEQ ID NO. 170 (bispecific antibody)
chain: DIVMTQSQRFMSTTVGDRVSITCKASQNVVSAVAWYQQKPGQSPKLLIYSASNRYTGVPDRFTGSGSGTDFTLTISNMQSEDLADFFCQQYSNYPWTFGGGTKLEIKGGGGSGGGGSGGGGSDVKLVESGGGLVKLGGSLKLSCAASGFTFSNYYMSWVRQTPEKRLELVAAINSDGGITYYLDTVKGRFTISRDNAKNTLYLQMSSLKSEDTALFYCARHRSGYFSMDYWGQGTSVTVSSSGGGGSEVQLVESGGGLVQPGGSLKLSCAASGFTFNTYAMNWVRQAPGKGLEWVARIRSKYNNYATYYADSVKDRFTISRDDSKNTAYLQMNNLKTEDTAVYYCVRHGNFGNSYVSWFAYWGQGTLVTVSSGGGGSGGGGSGGGGSQTVVTQEPSLTVSPGGTVTLTCRSSTGAVTTSNYANWVQQKPGQAPRGLIGGTNKRAPGTPARFSGSLLGGKAALTLSGVQPEDEAEYYCALWYSNLWVFGGGTKLTVLHHHHHH
notes: as for B1
B4: binds [4].

B5: CAIX HL × SEQ ID NO. 170 (bispecific antibody)
chain: DVKLVESGGGLVKLGGSLKLSCAASGFTFSNYYMSWVRQTPEKRLELVAAINSDGGITYYLDTVKGRFTISRDNAKNTLYLQMSSLKSEDTALFYCARHRSGYFSMDYWGQGTSVTVSSGGGGSGGGGSGGGGSDIVMTQSQRFMSTTVGDRVSITCKASQNVVSAVAWYQQKPGQSPKLLIYSASNRYTGVPDRFTGSGSGTDFTLTISNMQSEDLADFFCQQYSNYPWTFGGGTKLEIKSGGGGSEVQLVESGGGLVQPGGSLKLSCAASGFTFNTYAMNWVRQAPGKGLEWVARIRSKYNNYATYYADSVKDRFTISRDDSKNTAYLQMNNLKTEDTAVYYCVRHGNFGNSYVSWFAYWGQGTLVTVSSGGGGSGGGGSGGGGSQTVVTQEPSLTVSPGGTVTLTCRSSTGAVTTSNYANWVQQKPGQAPRGLIGGTNKRAPGTPARFSGSLLGGKAALTLSGVQPEDEAEYYCALWYSNLWVFGGGTKLTVLHHHHHH
notes: as for B1
B5: binds [5].

B6: monoclonal antibody (mAb) FN-18 (antibody, V domains shown)
VH: QVQLQQSEAELARPGASVKMSCKASGYTFTDYTIHWLKQRPGQGLDWIGYFNPSSESTEYNRKFKDRTILTADRSSTTAYMQLSSLTSEDSAVYYCSRKGEKLLGNRYWYFDVWGAGTSVTVSS
VL: DIVMSQSPSSLAVSVGEKVTMSCKSSQSLLYSSNQKNYLAWYQQKPGQSPKLLINWASTRESGVPDRFTGSGSRTDFTLTISSVKAEDLAVYFCQQFYSYPPTFGGGTKLEIK
notes: tested as bought FITC-conjugated antibody (Biosource International)
B6: no binding (tested: 50 µl of undiluted antibody) [6].
